Tested on: Escherichia coli TOP10
Assay: shrunken log2 fold change of peptide-encoding DNA abundance (4.5 h post-induction vs induction); higher = less antimicrobial activity (less host growth inhibition)
Conditions: time post-induction: 4.5 h; library: site-saturation at positions 5, 18, 19, 20
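Further: peptides expressed intracellularly from a pBAD plasmid library in pooled LB shake-flask culture, induced with 0.3% L-arabinose, DNA abundance read by NGS, three biological replicates, DESeq2 with apeglm shrinkage.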

RRIRVRPPRLPRPRPRPAQKPRP and RRIRVRPPRLPRPRPRPARTPRP are within 0.2 log units of each other in “shrunken log2 fold change” value: 0.135 for the first, 0.147 for the second.

Compared with RRIRVRPPRLPRPRPRPAVCPRP, RRIRVRPPRLPRPRPRPAVPPRP is lower in “shrunken log2 fold change” value: 0.258 for the first, 0.0151 for the second.

First: RRIRVRPPRLPRPRPRPAVTPRP
Second: RRIRVRPPRLPRPRPRPAWNPRP
The “shrunken log2 fold change” value of the first is lower: -0.269 for the first, 0.219 for the second.

RRIRVRPPRLPRPRPRPAYFPRP and RRIRVRPPRLPRPRPRPAYKPRP are within 0.2 log units of each other in “shrunken log2 fold change” value: -0.325 for the first, -0.181 for the second.

First: RRIRVRPPRLPRPRPRPAYRPRP
Second: RRIRVRPPRLPRPRPRPCAKPRP
The “shrunken log2 fold change” value of the first is lower: -0.0828 for the first, 0.128 for the second.

RRIRVRPPRLPRPRPRPCAQPRP and RRIRVRPPRLPRPRPRPCCMPRP are within 0.2 log units of each other in “shrunken log2 fold change” value: -0.186 for the first, -0.181 for the second.

Going from RRIRVRPPRLPRPRPRPCDAPRP to RRIRVRPPRLPRPRPRPCDEPRP, the “shrunken log2 fold change” value falls from 0.121 to -0.488.

Compared with RRIRVRPPRLPRPRPRPCDQPRP, RRIRVRPPRLPRPRPRPCHCPRP is lower in “shrunken log2 fold change” value: -0.0149 for the first, -0.373 for the second.

RRIRVRPPRLPRPRPRPCHGPRP and RRIRVRPPRLPRPRPRPCHHPRP are within 0.2 log units of each other in “shrunken log2 fold change” value: 0.000197 for the first, -0.00671 for the second.

RRIRVRPPRLPRPRPRPCHSPRP and RRIRVRPPRLPRPRPRPCICPRP are within 0.2 log units of each other in “shrunken log2 fold change” value: -0.225 for the first, -0.338 for the second.

Compared with RRIRVRPPRLPRPRPRPCIEPRP, RRIRVRPPRLPRPRPRPCINPRP is higher in “shrunken log2 fold change” value: -0.351 for the first, 0.0189 for the second.

Going from RRIRVRPPRLPRPRPRPCIPPRP to RRIRVRPPRLPRPRPRPCKDPRP, the “shrunken log2 fold change” value rises from -0.467 to -0.0644.

RRIRVRPPRLPRPRPRPCLNPRP and RRIRVRPPRLPRPRPRPCMCPRP are within 0.2 log units of each other in “shrunken log2 fold change” value: -0.193 for the first, 0.00286 for the second.

First: RRIRVRPPRLPRPRPRPCMQPRP
Second: RRIRVRPPRLPRPRPRPCNSPRP
The “shrunken log2 fold change” value of the first is higher: 0.162 for the first, -0.116 for the second.

RRIRVRPPRLPRPRPRPCQTPRP and RRIRVRPPRLPRPRPRPCRLPRP are within 0.2 log units of each other in “shrunken log2 fold change” value: -0.03 for the first, -0.0106 for the second.

RRIRVRPPRLPRPRPRPCRMPRP and RRIRVRPPRLPRPRPRPCTIPRP are within 0.2 log units of each other in “shrunken log2 fold change” value: -0.0641 for the first, -0.0586 for the second.

First: RRIRVRPPRLPRPRPRPCTQPRP
Second: RRIRVRPPRLPRPRPRPCWTPRP
The “shrunken log2 fold change” value of the first is higher: -0.322 for the first, -0.665 for the second.

RRIRVRPPRLPRPRPRPCWVPRP and RRIRVRPPRLPRPRPRPDAGPRP are within 0.2 log units of each other in “shrunken log2 fold change” value: 0.0559 for the first, 0.13 for the second.

First: RRIRVRPPRLPRPRPRPDANPRP
Second: RRIRVRPPRLPRPRPRPDAQPRP
The “shrunken log2 fold change” value of the first is higher: 0.167 for the first, -0.136 for the second.

RRIRVRPPRLPRPRPRPDCIPRP and RRIRVRPPRLPRPRPRPDDRPRP are within 0.2 log units of each other in “shrunken log2 fold change” value: -0.161 for the first, -0.0538 for the second.

RRIRVRPPRLPRPRPRPDDSPRP and RRIRVRPPRLPRPRPRPDECPRP are within 0.2 log units of each other in “shrunken log2 fold change” value: 0.13 for the first, -0.00624 for the second.

RRIRVRPPRLPRPRPRPDELPRP and RRIRVRPPRLPRPRPRPDFGPRP are within 0.2 log units of each other in “shrunken log2 fold change” value: -0.0586 for the first, -0.0183 for the second.

Going from RRIRVRPPRLPRPRPRPDFWPRP to RRIRVRPPRLPRPRPRPDGEPRP, the “shrunken log2 fold change” value rises from 0.239 to 0.487.

RRIRVRPPRLPRPRPRPDGSPRP and RRIRVRPPRLPRPRPRPDHCPRP are within 0.2 log units of each other in “shrunken log2 fold change” value: -0.0225 for the first, -0.146 for the second.

First: RRIRVRPPRLPRPRPRPDHKPRP
Second: RRIRVRPPRLPRPRPRPDICPRP
The “shrunken log2 fold change” value of the first is lower: -0.0198 for the first, 0.221 for the second.

First: RRIRVRPPRLPRPRPRPDLAPRP
Second: RRIRVRPPRLPRPRPRPDMQPRP
The “shrunken log2 fold change” value of the first is higher: 3.31 for the first, -0.081 for the second.

RRIRVRPPRLPRPRPRPDPVPRP and RRIRVRPPRLPRPRPRPDQGPRP are within 0.2 log units of each other in “shrunken log2 fold change” value: -0.00845 for the first, 0.00375 for the second.

RRIRVRPPRLPRPRPRPDRPPRP and RRIRVRPPRLPRPRPRPDRYPRP are within 0.2 log units of each other in “shrunken log2 fold change” value: -0.109 for the first, -0.00296 for the second.

RRIRVRPPRLPRPRPRPDTEPRP and RRIRVRPPRLPRPRPRPDTSPRP are within 0.2 log units of each other in “shrunken log2 fold change” value: 0.0532 for the first, -0.124 for the second.

First: RRIRVRPPRLPRPRPRPDVDPRP
Second: RRIRVRPPRLPRPRPRPDVQPRP
The “shrunken log2 fold change” value of the first is lower: -0.367 for the first, -0.0199 for the second.

RRIRVRPPRLPRPRPRPDYTPRP and RRIRVRPPRLPRPRPRPDYVPRP are within 0.2 log units of each other in “shrunken log2 fold change” value: -0.495 for the first, -0.406 for the second.

First: RRIRVRPPRLPRPRPRPEAGPRP
Second: RRIRVRPPRLPRPRPRPECLPRP
The “shrunken log2 fold change” value of the first is higher: 0.553 for the first, 0.0466 for the second.

RRIRVRPPRLPRPRPRPECSPRP and RRIRVRPPRLPRPRPRPEHDPRP are within 0.2 log units of each other in “shrunken log2 fold change” value: -0.091 for the first, -0.249 for the second.

Going from RRIRVRPPRLPRPRPRPEIMPRP to RRIRVRPPRLPRPRPRPEIPPRP, the “shrunken log2 fold change” value rises from -0.194 to 0.054.

RRIRVRPPRLPRPRPRPEKTPRP and RRIRVRPPRLPRPRPRPEMLPRP are within 0.2 log units of each other in “shrunken log2 fold change” value: 0.0303 for the first, 0.0987 for the second.

Going from RRIRVRPPRLPRPRPRPENMPRP to RRIRVRPPRLPRPRPRPEPDPRP, the “shrunken log2 fold change” value rises from -0.0886 to 0.242.

First: RRIRVRPPRLPRPRPRPEQDPRP
Second: RRIRVRPPRLPRPRPRPERDPRP
The “shrunken log2 fold change” value of the first is higher: 0.173 for the first, -0.15 for the second.

RRIRVRPPRLPRPRPRPERLPRP and RRIRVRPPRLPRPRPRPERMPRP are within 0.2 log units of each other in “shrunken log2 fold change” value: -0.0657 for the first, -0.0652 for the second.

First: RRIRVRPPRLPRPRPRPESCPRP
Second: RRIRVRPPRLPRPRPRPESKPRP
The “shrunken log2 fold change” value of the first is higher: 0.242 for the first, 0.00683 for the second.

RRIRVRPPRLPRPRPRPETCPRP and RRIRVRPPRLPRPRPRPEVLPRP are within 0.2 log units of each other in “shrunken log2 fold change” value: 0.437 for the first, 0.244 for the second.

RRIRVRPPRLPRPRPRPEYIPRP and RRIRVRPPRLPRPRPRPFADPRP are within 0.2 log units of each other in “shrunken log2 fold change” value: -0.00622 for the first, -0.0225 for the second.

First: RRIRVRPPRLPRPRPRPFAFPRP
Second: RRIRVRPPRLPRPRPRPFAHPRP
The “shrunken log2 fold change” value of the first is lower: -0.38 for the first, -0.176 for the second.

RRIRVRPPRLPRPRPRPFANPRP and RRIRVRPPRLPRPRPRPFASPRP are within 0.2 log units of each other in “shrunken log2 fold change” value: -0.0887 for the first, 0.0656 for the second.

Compared with RRIRVRPPRLPRPRPRPFAYPRP, RRIRVRPPRLPRPRPRPFDFPRP is higher in “shrunken log2 fold change” value: -0.528 for the first, -0.266 for the second.

RRIRVRPPRLPRPRPRPFDYPRP and RRIRVRPPRLPRPRPRPFEAPRP are within 0.2 log units of each other in “shrunken log2 fold change” value: -0.221 for the first, -0.193 for the second.

First: RRIRVRPPRLPRPRPRPFIDPRP
Second: RRIRVRPPRLPRPRPRPFKAPRP
The “shrunken log2 fold change” value of the first is higher: 0.0294 for the first, -0.316 for the second.

RRIRVRPPRLPRPRPRPFNEPRP and RRIRVRPPRLPRPRPRPFNVPRP are within 0.2 log units of each other in “shrunken log2 fold change” value: -0.258 for the first, -0.185 for the second.

First: RRIRVRPPRLPRPRPRPFPDPRP
Second: RRIRVRPPRLPRPRPRPFPWPRP
The “shrunken log2 fold change” value of the first is lower: -0.345 for the first, -0.0892 for the second.

RRIRVRPPRLPRPRPRPFQAPRP and RRIRVRPPRLPRPRPRPFQEPRP are within 0.2 log units of each other in “shrunken log2 fold change” value: -0.127 for the first, 0.00442 for the second.

RRIRVRPPRLPRPRPRPFQFPRP and RRIRVRPPRLPRPRPRPFRPPRP are within 0.2 log units of each other in “shrunken log2 fold change” value: -0.171 for the first, -0.324 for the second.

RRIRVRPPRLPRPRPRPFTNPRP and RRIRVRPPRLPRPRPRPFTVPRP are within 0.2 log units of each other in “shrunken log2 fold change” value: -0.0456 for the first, -0.105 for the second.

Going from RRIRVRPPRLPRPRPRPFWMPRP to RRIRVRPPRLPRPRPRPGAEPRP, the “shrunken log2 fold change” value rises from 0.0403 to 0.271.

Going from RRIRVRPPRLPRPRPRPGAQPRP to RRIRVRPPRLPRPRPRPGDDPRP, the “shrunken log2 fold change” value rises from 0.00624 to 0.364.

RRIRVRPPRLPRPRPRPGDFPRP and RRIRVRPPRLPRPRPRPGDNPRP are within 0.2 log units of each other in “shrunken log2 fold change” value: 0.0156 for the first, 0.174 for the second.

In the case of RRIRVRPPRLPRPRPRPGECPRP, the “shrunken log2 fold change” value was -0.145.

From the supplement of paper PMC9112550, “Optimization of the antimicrobial peptide Bac7 by deep mutational scanning” (BMC Biology, 2022)
